Target: the molecule itself
Assay: cross-linking; Strep-tagged CheY3 (11.8 µM) and His-tagged SO4207S (3.1 µM), together or separately, 5 mM EDC, 1 h at room temperature, 10 mM cacodylate buffer; SDS-PAGE and blot with HisProbe-HRP

B1: His-tagged SO4207S (soluble cytoplasmic domain of SO4207, D388 to N625) (domain or fragment, S. oneidensis, UniProt Q8E9Q9 388-625, looked up)
chain: DERKAKQRIQQEALKQAQKIRSAREEALKVEAETNERLEQKVQERTLELEITLRELHEVNQKLTEQSTIDSLTGVKNRSAFDKRLLAESRISRRQETPIALLMLDIDRFKSINDQFGHLAGDQALKLIAQTLQQHLKRPTDLVSRFGGEEFAIILPNTTADGALQVAESIRDTVSCIGLTWEGKPIPLTVSIGVSADVIMNEQHSTELLEQADKALYQAKNSGRNQVKLYAPAQTEPN
notes: diguanylate cyclase SO4207 of Shewanella oneidensis, cytoplasmic domain D388 to N625, devoid of the transmembrane segments; Cloned into pET21b; printed mass 30 kDa; also called pET-SO4207S; source: E. coli BL21 (DE3), purified (HisTrapFF); not shown: 6xHis-tag, C-terminal, kept
- stoichiometry N: 2

Reference: paper PMC7666153, “The phosphorylated regulator of chemotaxis is crucial throughout biofilm biogenesis in Shewanella oneidensis” (NPJ Biofilms and Microbiomes, 2020)
